From article PMC11574045, “A cofactor-induced repressive type of transcription factor condensation can be induced by synthetic peptides to suppress tumorigenesis” (The EMBO Journal, 2024)

B1: NFATX (protein, UniProt Q12968 2-1075, looked up)
Nuclear factor of activated …: TTANCGAHDELDFKLVFGEDGAPAPPPPGSRPADLEPDDCASIYIFNVDPPPSTLTTPLCLPHHGLPSHSSVLSPSFQLQSHKNYEGTCEIPESKYSPLGGPKPFECPSIQITSISPNCHQELDAHEDDLQINDPEREFLERPSRDHLYLPLEPSYRESSLSPSPASSISSRSWFSDASSCESLSHIYDDVDSELNEAAARFTLGSPLTSPGGSPGGCPGEETWHQQYGLGHSLSPRQSPCHSPRSSVTDENWLSPRPASGPSSRPTSPCGKRRHSSAEVCYAGSLSPHHSPVPSPGHSPRGSVTEDTWLNASVHGGSGLGPAVFPFQYCVETDIPLKTRKTSEDQAAILPGKLELCSDDQGSLSPARETSIDDGLGSQYPLKKDSCGDQFLSVPSPFTWSKPKPGHTPIFRTSSLPPLDWPLPAHFGQCELKIEVQPKTHHRAHYETEGSRGAVKASTGGHPVVKLLGYNEKPINLQMFIGTADDRYLRPHAFYQVHRITGKTVATASQEIIIASTKVLEIPLLPENNMSASIDCAGILKLRNSDIELRKGETDIGRKNTRVRLVFRVHIPQPSGKVLSLQIASIPVECSQRSAQELPHIEKYSINSCSVNGGHEMVVTGSNFLPESKIIFLEKGQDGRPQWEVEGKIIREKCQGAHIVLEVPPYHNPAVTAAVQVHFYLCNGKRKKSQSQRFTYTPVLMKQEHREEIDLSSVPSLPVPHPAQTQRPSSDSGCSHDSVLSGQRSLICSIPQTYASMVTSSHLPQLQCRDESVSKEQHMIPSPIVHQPFQVTPTPPVGSSYQPMQTNVVYNGPTCLPINAASSQEFDSVLFQQDATLSGLVNLGCQPLSSIPFHSSNSGSTGHLLAHTPHSVHTLPHLQSMGYHCSNTGQRSLSSPVADQITGQPSSQLQPITYGPSHSGSATTASPAASHPLASSPLSGPPSPQLQPMPYQSPSSGTASSPSPATRMHSGQHSTQAQSTGQGGLSAPSSLICHSLCDPASFPPDGATVSIKPEPEDREPNFATIGLQDITLDDVNEIIGRDMSQISVSQGAGVSRQAPLPSPESLDLGRSDGL
B2: NFIL3 (protein, UniProt Q16649 1-462, looked up)
Nuclear factor …: MQLRKMQTVKKEQASLDASSNVDKMMVLNSALTEVSEDSTTGEELLLSEGSVGKNKSSACRRKREFIPDEKKDAMYWEKRRKNNEAAKRSREKRRLNDLVLENKLIALGEENATLKAELLSLKLKFGLISSTAYAQEIQKLSNSTAVYFQDYQTSKSNVSSFVDEHEPSMVSSSCISVIKHSPQSSLSDVSEVSSVEHTQESSVQGSCRSPENKFQIIKQEPMELESYTREPRDDRGSYTASIYQNYMGNSFSGYSHSPPLLQVNRSSSNSPRTSETDDGVVGKSSDGEDEQQVPKGPIHSPVELKHVHATVVKVPEVNSSALPHKLRIKAKAMQIKVEAFDNEFEATQKLSSPIDMTSKRHFELEKHSAPSMVHSSLTPFSVQVTNIQDWSLKSEHWHQKELSGKTQNSFKTGVVEMKDSGYKVSDPENLYLKQGIANLSAEVVSLKRLIATQPISASDSG
B3: NFKB2 (protein, UniProt Q00653 1-900, looked up)
Nuclear factor NF-kappa-B …: MESCYNPGLDGIIEYDDFKLNSSIVEPKEPAPETADGPYLVIVEQPKQRGFRFRYGCEGPSHGGLPGASSEKGRKTYPTVKICNYEGPAKIEVDLVTHSDPPRAHAHSLVGKQCSELGICAVSVGPKDMTAQFNNLGVLHVTKKNMMGTMIQKLQRQRLRSRPQGLTEAEQRELEQEAKELKKVMDLSIVRLRFSAFLRASDGSFSLPLKPVISQPIHDSKSPGASNLKISRMDKTAGSVRGGDEVYLLCDKVQKDDIEVRFYEDDENGWQAFGDFSPTDVHKQYAIVFRTPPYHKMKIERPVTVFLQLKRKRGGDVSDSKQFTYYPLVEDKEEVQRKRRKALPTFSQPFGGGSHMGGGSGGAAGGYGGAGGGGSLGFFPSSLAYSPYQSGAGPMGCYPGGGGGAQMAATVPSRDSGEEAAEPSAPSRTPQCEPQAPEMLQRAREYNARLFGLAQRSARALLDYGVTADARALLAGQRHLLTAQDENGDTPLHLAIIHGQTSVIEQIVYVIHHAQDLGVVNLTNHLHQTPLHLAVITGQTSVVSFLLRVGADPALLDRHGDSAMHLALRAGAGAPELLRALLQSGAPAVPQLLHMPDFEGLYPVHLAVRARSPECLDLLVDSGAEVEATERQGGRTALHLATEMEELGLVTHLVTKLRANVNARTFAGNTPLHLAAGLGYPTLTRLLLKAGADIHAENEEPLCPLPSPPTSDSDSDSEGPEKDTRSSFRGHTPLDLTCSTKVKTLLLNAAQNTMEPPLTPPSPAGPGLSLGDTALQNLEQLLDGPEAQGSWAELAERLGLRSLVDTYRQTTSPSGSLLRSYELAGGDLAGLLEALSDMGLEEGVRLLRGPETRDKLPSTAEVKEDSAYGSQSVEQEAEKLGPPPEPPGGLCHGHPQPQVH
B4: NFKBIA (protein, UniProt P25963 1-317, looked up)
NF-kappa-B inhibitor alpha: MFQAAERPQEWAMEGPRDGLKKERLLDDRHDSGLDSMKDEEYEQMVKELQEIRLEPQEVPRGSEPWKQQLTEDGDSFLHLAIIHEEKALTMEVIRQVKGDLAFLNFQNNLQQTPLHLAVITNQPEIAEALLGAGCDPELRDFRGNTPLHLACEQGCLASVGVLTQSCTTPHLHSILKATNYNGHTCLHLASIHGYLGIVELLVSLGADVNAQEPCNGRTALHLAVDLQNPDLVSLLLKCGADVNRVTYQGYSPYQLTWGRPSTRIQQQLGQLTLENLQMLPESEDEESYDTESEFTEFTEDELPYDDCVFGGQRLTL
B5: NFKBIB (protein, UniProt Q15653 1-356, looked up)
NF-kappa-B inhibitor beta: MAGVACLGKAADADEWCDSGLGSLGPDAAAPGGPGLGAELGPGLSWAPLVFGYVTEDGDTALHLAVIHQHEPFLDFLLGFSAGTEYMDLQNDLGQTALHLAAILGETSTVEKLYAAGAGLCVAERRGHTALHLACRVGAHACARALLQPRPRRPREAPDTYLAQGPDRTPDTNHTPVALYPDSDLEKEEEESEEDWKLQLEAENYEGHTPLHVAVIHKDVEMVRLLRDAGADLDKPEPTCGRSPLHLAVEAQAADVLELLLRAGANPAARMYGGRTPLGSAMLRPNPILARLLRAHGAPEPEGEDEKSGPCSSSSDSDSGDEGDEYDDIVVHSSRSQTRLPPTPASKPLPDDPRPV
B6: ATF2/CRE-BP (protein, UniProt P15336 1-505, looked up)
Cyclic AMP-dependent …: MKFKLHVNSARQYKDLWNMSDDKPFLCTAPGCGQRFTNEDHLAVHKHKHEMTLKFGPARNDSVIVADQTPTPTRFLKNCEEVGLFNELASPFENEFKKASEDDIKKMPLDLSPLATPIIRSKIEEPSVVETTHQDSPLPHPESTTSDEKEVPLAQTAQPTSAIVRPASLQVPNVLLTSSDSSVIIQQAVPSPTSSTVITQAPSSNRPIVPVPGPFPLLLHLPNGQTMPVAIPASITSSNVHVPAAVPLVRPVTMVPSVPGIPGPSSPQPVQSEAKMRLKAALTQQHPPVTNGDTVKGHGSGLVRTQSEESRPQSLQQPATSTTETPASPAHTTPQTQSTSGRRRRAANEDPDEKRRKFLERNRAAASRCRQKRKVWVQSLEKKAEDLSSLNGQLQSEVTLLRNEVAQLKQLLLAHKDCPVTAMQKKSGYHTADKDDSSEDISVPSSPHTEAIQHSSVSTSNGVSSTSKAEAVATSVLTQMADQSTEPALSQIVMAPSSQSQPSGS
B7: NFX1 (protein, UniProt Q12986 1-1120, looked up)
Transcriptional repressor …: MAEAPPVSGTFKFNTDAAEFIPQEKKNSGLNCGTQRRLDSNRIGRRNYSSPPPCHLSRQVPYDEISAVHQHSYHPSGSKPKSQQTSFQSSPCNKSPKSHGLQNQPWQKLRNEKHHIRVKKAQSLAEQTSDTAGLESSTRSESGTDLREHSPSESEKEVVGADPRGAKPKKATQFVYSYGRGPKVKGKLKCEWSNRTTPKPEDAGPESTKPVGVFHPDSSEASSRKGVLDGYGARRNEQRRYPQKRPPWEVEGARPRPGRNPPKQEGHRHTNAGHRNNMGPIPKDDLNERPAKSTCDSENLAVINKSSRRVDQEKCTVRRQDPQVVSPFSRGKQNHVLKNVETHTGSLIEQLTTEKYECMVCCELVRVTAPVWSCQSCYHVFHLNCIKKWARSPASQADGQSGWRCPACQNVSAHVPNTYTCFCGKVKNPEWSRNEIPHSCGEVCRKKQPGQDCPHSCNLLCHPGPCPPCPAFMTKTCECGRTRHTVRCGQAVSVHCSNPCENILNCGQHQCAELCHGGQCQPCQIILNQVCYCGSTSRDVLCGTDVGKSDGFGDFSCLKICGKDLKCGNHTCSQVCHPQPCQQCPRLPQLVRCCPCGQTPLSQLLELGSSSRKTCMDPVPSCGKVCGKPLPCGSLDFIHTCEKLCHEGDCGPCSRTSVISCRCSFRTKELPCTSLKSEDATFMCDKRCNKKRLCGRHKCNEICCVDKEHKCPLICGRKLRCGLHRCEEPCHRGNCQTCWQASFDELTCHCGASVIYPPVPCGTRPPECTQTCARVHECDHPVYHSCHSEEKCPPCTFLTQKWCMGKHEFRSNIPCHLVDISCGLPCSATLPCGMHKCQRLCHKGECLVDEPCKQPCTTPRADCGHPCMAPCHTSSPCPVTACKAKVELQCECGRRKEMVICSEASSTYQRIAAISMASKITDMQLGGSVEISKLITKKEVHQARLECDEECSALERKKRLAEAFHISEDSDPFNIRSSGSKFSDSLKEDARKDLKFVSDVEKEMETLVEAVNKGKNSKKSHSFPPMNRDHRRIIHDLAQVYGLESVSYDSEPKRNVVVTAIRGKSVCPPTTLTGVLEREMQARPPPPIPHHRHQSDKNPGSSNLQKITKEPIIDYFDVQD
B8: NFYB (protein, UniProt P25208 1-207, looked up)
Nuclear transcription factor …: MTMDGDSSTTDASQLGISADYIGGSHYVIQPHDDTEDSMNDHEDTNGSKESFREQDIYLPIANVARIMKNAIPQTGKIAKDAKECVQECVSEFISFITSEASERCHQEKRKTINGEDILFAMSTLGFDSYVEPLKLYLQKFREAMKGEKGIGGAVTATDGLSEELTEEAFTNQLPAGLITTDGQQQNVMVYTTSYQQISGVQQIQFS
B9: NF-YB (protein, UniProt P25208 1-207, looked up)
Nuclear transcription factor …: MTMDGDSSTTDASQLGISADYIGGSHYVIQPHDDTEDSMNDHEDTNGSKESFREQDIYLPIANVARIMKNAIPQTGKIAKDAKECVQECVSEFISFITSEASERCHQEKRKTINGEDILFAMSTLGFDSYVEPLKLYLQKFREAMKGEKGIGGAVTATDGLSEELTEEAFTNQLPAGLITTDGQQQNVMVYTTSYQQISGVQQIQFS
B10: NKX2.5 (protein, UniProt P52952 1-324, looked up)
Homeobox protein Nkx-2.5: MFPSPALTPTPFSVKDILNLEQQQRSLAAAGELSARLEATLAPSSCMLAAFKPEAYAGPEAAAPGLPELRAELGRAPSPAKCASAFPAAPAFYPRAYSDPDPAKDPRAEKKELCALQKAVELEKTEADNAERPRARRRRKPRVLFSQAQVYELERRFKQQRYLSAPERDQLASVLKLTSTQVKIWFQNRRYKCKRQRQDQTLELVGLPPPPPPPARRIAVPVLVRDGKPCLGDSAPYAPAYGVGLNPYGYNAYPAYPGYGGAACSPGYSCTAAYPAGPSPAQPATAAANNNFVNFGVGDLNAVQSPGIPQSNSGVSTLHGIRAW

These molecules were tested on HEK293FT cells transfected with TF library (assay: Screening of TF condensates based on fluorescent puncta). Conditions: Figure 1B numerical data; TF library screen, one value per transcriptional factor.
Assay type: cell-based
Procedure, shortened: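 Condensate formation is scored as Alexa 488-labelled puncta after Flag- or GAL4-tag immunostaining of fixed HEK293FT cells expressing individual TFs, with a 12 h glucose-free or glucose-containing culture preceding fixation.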

First: B1
Second: B2
The “Z score of condensed fraction” value of the first is higher: -0.5752 for the first, -0.6996 for the second.

Going from B3 to B4, the “Z score of condensed fraction” value rises from 0.04386 to 0.298.

Compared with B5, B6 is lower in “Z score of condensed fraction” value: 1.097 for the first, -0.7003 for the second.

Going from B7 to B8, the “Z score of condensed fraction” value rises from -0.8733 to 0.9401.

First: B9
Second: B10
The “Z score of condensed fraction” value of the first is higher: 0.001922 for the first, -0.3246 for the second.
